Source: the RNAGym collection of RNA variant scans (doi:10.1021/acssynbio.7b00057)

B1: Pistol ribozyme (parent)
chain: GGGUCGUUGUUCCAUAAUCGCGUGGAUAUGGCACGCAAGUUUCUACCGGGCACCGUAAAUGUCCGACUGGAGCCGUUCGGGCGGCUAUAAACAGACCUCAGGCCCGAAGCGUGGCGGCACCUGCCGCCGGUGGUAAAAAAGAUCGGAAGAGCACACGUCU

Variants of: B1
Experiment: aptazyme ON/OFF ratio, guanine; higher = stronger switching; co-transcriptional cleavage with and without guanine

Variant | aptazyme ON/OFF ratio
U7G U8C G9C U11G C12G C13A | 1.12
U7A U8C G9U U10G U11G C12U C13U | 1.16
U7G U8A G9U U10G U11A C12A C13U | 1.07
U7C U8G G9A C12U C13U | 1.22
U8C G9A U10G C12A C13U | 1.28
U7C U8A U10A U11G C12A C13U | 1.19
U8C G9A U10A U11C C12A C13U | 1.19
U7A U8A U10C C12U C13A | 1.05
U7A U8A G9C U10C U11G C12U C13G | 1.05
U8G G9A U11C C12U | 1.07
U8C G9C U10G U11G | 1.11
U7C U8A G9C U11C C12U C13U | 1.12
U7C U10A C12U C13G | 1.14
U7A U8C G9U U10A U11G C12A C13A | 1.08
U7A U8A G9C U11C C13A | 1.08
U7C G9A U10C U11G C12A C13A | 1.21
U7C U8G G9C U10C U11G C13G | 1.11
U7C U8G G9A U10G C13G | 1.16
U8C G9A U11G | 1.45
U7C U8A U10C U11C C12A C13A | 1.18
U7A G9A U10G U11A | 1.06
U7C G9U U10C U11A C12U C13U | 1.16
U7A U8C U11C C12U | 1.46
U8C U11A C12A C13A | 1.32

Variant | aptazyme ON/OFF ratio
U7G G9C U10C U11A C12U | 1.4
U7A G9U U11G C12U C13U | 1.08
U7G G9A U10A U11G C12A C13G | 1.08
U8C G9A U10G U11C C12G C13A | 1.18
U7G U8A U11A C12A C13G | 1.24
U7G U8A G9A C12U C13A | 1.13
U7A U8G G9U U10G C12G C13G | 1.11
U8G G9C U10A U11A C12A C13G | 1.09
U7C U8C G9U U10A C12U | 1.17
G9A U10A U11C C12A | 1.65
U7C G9A U10A C13G | 1.03
U7G U8A C12G C13G | 1.17
U7A U8C G9A U10C U11C | 1.08
U7G U8A U10A U11A C12G C13A | 1.14
U7C U8C U10C U11A C12G C13G | 1.29
U7G U8G G9C U10A U11C C12G | 1.11
U8C U10C U11G C12A C13A | 1.17
U7G U10A U11G C13A | 1.16
U7C U8G G9C U10C U11A C12A C13G | 1.06
U7C U8A G9C U10C U11A C12U C13U | 1.04
U7C U8G G9U U10G U11A C13A | 1.1
U7C C13G | 1.05
U7G G9C U10G U11A C12U C13G | 1.28
U7C U8C G9C U11A C13A | 1.13

Variant | aptazyme ON/OFF ratio
U8C U11C C12U | 1.55
U7G G9A U10A C12U | 1.31
U8A U11C C12A | 1.29
U8G G9A U10A U11C C12G C13G | 1.21
U7A U8G G9C U10G U11A C12G C13U | 1.46
U7A U8C G9A U10C U11G C12A C13G | 1.33
U7G U8A G9C U11G C12A C13A | 1.05
G9A U10A U11G | 2.38
U7G U8A G9A C12A C13G | 1.11
U7G U8G G9A U10C U11G | 1.89
U7A U8C G9C C12G C13A | 1.07
U7G U8A G9U U11C C13G | 1.05
U7G U8G G9C U10C U11G C13U | 1.3
U7C U8A U10A C13A | 1.07
U7C G9C C12A C13A | 1.05
U10G U11G C13A | 1.26
U7A U8C G9A U10G U11G C12A C13A | 1.39
U7C U8G G9C U10C U11G C12G C13A | 1.12
U7A U8A G9A U10C U11A C12U | 1.17
U7A U8A U11C C12A C13A | 1.02
U7A U8C G9C U10G U11G C13U | 1.09
U7A U8G G9U U10A U11A C12G C13U | 1.22
U7G U8A G9C U10C C12U C13G | 1.01
U7A U8A G9U U10G C12U C13U | 1.51

Variant | aptazyme ON/OFF ratio
U7A U8C G9C C13U | 1.07
U7A U8C U10A U11C C12A C13A | 1.07
U7G U10G C12G C13G | 1.07
U7A G9C U10C U11C C12G C13U | 1.02
U10C U11C C12A | 1.27
U7C U8A G9C U10G U11C C12U C13A | 1.19
U7G U8A G9U U10C U11A C12G C13G | 1.07
U7C G9U U10C U11C C12A C13A | 1.04
U8A G9U U10G U11C C12U C13U | 1.08
U7G U8C G9A U11C C12A C13A | 1.11
U7A G9A U10A U11G C12A C13U | 1.09
G9U U11A C12A C13G | 1.31
U8G U10G U11G C12U C13U | 1.34
U7G G9A U11A C12U C13G | 1.17
U7A U8A U10C U11G C13G | 1.2
G9C U10C U11G C12U C13U | 1.06
U7A U8G U10C U11A C12G C13A | 1.22
U7A U8A U10C U11C C12A | 1.17
U7A U8C G9U U11G C12A C13U | 1.17
U8G G9C U10G U11C C12U C13A | 1.03
U7C U8A G9A U10A C13G | 1.09
U7A U10C U11A C12A C13G | 1.23
U7G U8G G9C U11A C12G C13G | 1.07
U7G U8C U11A C12A | 1.37

Variant | aptazyme ON/OFF ratio
U8G G9C U10A U11C | 1.03
G9A U10G U11C C12G C13U | 1.24
U8A U10G U11A C12U C13U | 1.31
U7A U8G U10A U11A C13G | 1.38
U7G U10G U11A C12G C13A | 1.11
U7C U8G G9A U11G | 1.18
U7A U8A G9A U10C U11G C12A C13A | 1.09
U7A G9U U10C U11G | 1.32
U7C U8A U10A U11G C12G | 1.19
U7G U8A U10G U11A C12G C13U | 1.23
U7C U8G G9A U10A C13A | 1.12
U7G U8G G9A U11C C13A | 1.25
U8C G9A U10C U11A C12U C13U | 1.28
U7A G9U U10A U11A C12A C13G | 1.14
U7C U8C G9A U10G U11G C12G C13A | 1.15
U7A U8A G9C U10C U11A C12U C13U | 1.09
U7A U11C C12G C13U | 1.23
U7A U8C G9C U10G U11A C13G | 1.1
U7G U8A U10A U11G C12U C13G | 1.14
U8G U11C C12U C13G | 1.29
U7C G9U U10G U11A C12A | 1.2
U8G G9C U10G U11A C12U | 1.07
U7C U8A U10C U11A C12U C13G | 1.17
U7A U8A U10G U11G C12U C13A | 1.23

Variant | aptazyme ON/OFF ratio
U8A U10G U11C C12A C13A | 1.26
U7A U8G U10G U11C C12U C13A | 0.988
U8G U10C U11A | 1.89
G9A U10C U11G C12G C13U | 1.1
U7G U8G G9A U10A C12G C13G | 1.18
U7A U8C G9C U10C U11G C13A | 1.07
U7A G9C U11G C12G C13A | 1.16
U7C U8A G9C U10C U11A C12A C13U | 1.04
U10C U11C C12A C13G | 1.17
U7G U8C G9A U11C C13U | 1.21
U7A U8A G9C U10A U11G C12U | 1.22
U7G U8A G9C U10G U11G C13G | 1.1
U7G U8G U10C C12A C13A | 1.45
U7A U8G G9A U10G U11G C12G | 1.24
U8A G9A U10C C13G | 1.04
U7A U8C G9A U11A C12A C13G | 1.09
U7C G9A U10G U11A C13A | 1.06
U8G G9U U10G U11A C12G C13G | 1.17
U7A U8G G9C U10C U11A C13G | 1.22
U7G U10G C12U | 1.39
U7G U8A G9U U10C U11C C12G C13A | 1.09
U7G U8A G9A U10G U11G C12G C13A | 1.27
U7G U8G U10G U11A C12U C13U | 1.17
U7A U8A U11C C12G C13U | 1.46

Variant | aptazyme ON/OFF ratio
G9A U10A C13G | 1.14
U7G U8C U10G U11A C12U C13U | 1.17
U7G U8C U11C C12A C13A | 1.37
U8C G9U U10C U11C C12G C13G | 1.15
U8C G9C U10G U11A C12U C13G | 1.08
U7G U8A G9C U10C U11A | 0.986
U7A G9U U10A U11G C12A C13A | 1.08
U7C U8A G9A U10C C12U C13A | 1.11
U7C U8A G9A U10C U11G C13A | 1.15
U7C G9C U10A U11A | 1.05
U7C U8G G9U U10G U11A C12U C13G | 1.17
U7C U8A G9C U10A U11C C12A C13G | 1.14
U8C U10G C12U | 1.36
U7A U8A G9C U10G C12G | 1.33
U7G U8C G9C U10C U11G C12A | 1.14
U7G U8G G9U U10G C12A C13A | 1.09
U7C U8G | 1.35
U8G G9C U10A U11A C13A | 1.11
U8C G9A U10G C12A C13G | 1.1
U7A U8C G9C U10G U11A C12G | 1.11
U7C U8C G9C U10A U11G C12G C13A | 1.15
U7G U8C G9A U10C U11A C12G C13A | 1.06
G9C U11G C12A | 1.11
